The record followed here is patent US20240165260A1, “CONJUGATES OF ANTIBODY AND FUNCTIONAL SUBSTANCE OR SALTS THEREOF, AND COMPOUNDS USED IN PRODUCTION OF THE SAME OR SALTS THEREOF” (priority 2021, published 2024).

Data set [1] can be described thus: Evaluation of hydrophobicity by hydrophobic column chromatography (HIC-HPLC). The format is physicochemical. Particulars: hydrophobicity measure, Tosoh Biobuthyl NPR column, UV 280 nm. The procedure:
According to a previous report (Anal. Chem., 2019, 91, 20, 12724-12732, which is incorporated herein by reference in its entirety), HIC-HPLC analysis was performed. Measurement was performed using the following conditions. The hydrophobicity of an ADC can be evaluated by retention time of the ADC in HIC chromatogram.
Measurement system: Chromaster (registered trademark) (manufactured by Hitachi, Ltd.)
Column: Tosoh Biobuthyl NPR 2.5 μm 4.6×35 mm column manufactured by Tosoh Bio-Sciences Inc.
Gradient: linear gradient of eluent A/B
Eluent B: 25 mM Na2HPO4/NaH2PO4 (pH 6.0, 25 v/v % isopropanol added)

Data set [2] in a line: Evaluation of aggregation ratio by size exclusion chromatography (SEC-HPLC). Format: physicochemical. The conditions noted are these: UV 280 nm. As for the experimental part:
SEC-HPLC analysis was performed according to a previous report (Chemistry Select, 2020, 5, 8435-8439, which is incorporated herein by reference in its entirety). Measurement was performed using the following conditions.
Measurement system: 1260 HPLC system (manufactured by Agilent)
Column: AdvanceBio SEC 300 Å, 2.7 μm, 4.6 mm×150 mm, manufactured by Agilent Technologies
Eluent: 100 mM sodium dihydrogen phosphate/sodium hydrogen phosphate, aqueous solution of 250 mM sodium chloride (pH 6.8), 10′% v/v isopropanol
In general terms: Size exclusion chromatography separates by hydrodynamic size, large species first.

The target in the next data set is cathepsin B (Homo sapiens, UniProt P07858). Put plainly: Cathepsin B cleavability test of ADC mimics (released fluorescent molecules, HPLC/fluorescence). Format: biochemical. The conditions noted are these: 1 mg/mL ADC mimic, MES buffer pH 5.0, 37° C., six hours. As for the experimental part:
Cleave abilities for various ADC mimics by cathepsin B were evaluated by analyzing the amount of fluorescent molecules released from the ADC mimics as described below.
A cathepsin B cleavability test was performed as follows according to a previous report (Nature Communications 2018, 9, 2512, which is incorporated herein by reference in its entirety). An ADC mimic was added to 180 μL of a MES buffer (10 mM MES, 40 μM DTT, pH 5.0) so as to have a concentration of 1 mg/mL, and then 30 μL of the solution was poured into each of six Eppendorf tubes. To each of three of the six samples, 100 μL of acetonitrile was immediately added at 0° C. The mixture was stirred by vortex, and then centrifuged to obtain a precipitate. The resulting supernatant solution was collected and subjected to HPLC analysis. The remaining three samples were incubated at 37° C. for six hours. To each of the samples, 100 μL of acetonitrile was added. The mixture was stirred by vortex, and then centrifuged to obtain a precipitate. The resulting supernatant solution was collected and subjected to HPLC analysis.
For the measurement, the amount of fluorescent molecules released from an ADC mimic was measured using a liquid chromatography/fluorescence detection method. The three samples to which acetonitrile was immediately added at 0° C. in Example 7-1 were taken as 0 hour samples, and the three samples incubated at 37° C. for six hours as described in Example 7-1 were taken as 6 hour samples. A difference in fluorescence intensity between the 6 hour samples and the 0 hour samples was analyzed.
Separately, a correlation between the area of a fluorescence intensity area by HPLC and a concentration was calculated using Pyrene. The difference in fluorescence intensity between the ADC mimics was converted into a concentration using the calculation formula. When the concentration at 0 hour was set to 100%, a ratio of the above-described difference in fluorescence intensity was calculated as a releasing ratio.

The nature of data set [3]: Test for stability of ADC mimic in mouse plasma (released fluorescent molecules). Particulars: 0.1 mg/mL, 37° C., four days. Format: in vitro ADME. The procedure:
An ADC mimic was added to 500 μL of mouse plasma (manufactured by Charles River) so as to have a concentration of 0.1 mg/mL, and then the mixture was subjected to sterile filtration. 50 μL of this solution was poured into each of six Eppendorf tubes. Three of the six samples were stored in an incubator set at 37° C. for four days. The remaining three samples were stored in a freezer at −80° C. for four days similarly. To each of the samples, 100 μL of acetonitrile was added. The mixture was stirred by vortex, and then centrifuged to obtain a precipitate. The resulting supernatant solution was collected and subjected to HPLC analysis.
For the measurement, the amount of fluorescent molecules released from an ADC mimic was measured using a liquid chromatography/fluorescence detection method. The three samples stored in a freezer in Example 9-1 were taken as Day=0 samples, and the three samples stored at 37° C. in Example 9-1 were taken as Day=4 samples. A difference in fluorescence intensity between Day=4 samples and Day=0 samples was analyzed.
A releasing ratio of the fluorescent molecules was calculated according to Example 7-2.
Regarding the results, as illustrated in the following Table, a releasing ratio of the fluorescent molecules was evaluated.

With `CNC(=O)CCSC1CC(=O)N(CCCCCC(=O)N[C@@H](C(=O)N[C@H](CCCNC(N)=O)C(=O)Nc2ccc(COC(=O)N(C)CC(=O)NCc3cc4ccc5cccc6ccc(c3)c4c56)cc2)C(C)C)C1=O` (stereo partly drawn) [ADC mimic 4, reference compound], the Retention time in data set [1] worked out at 13.1 min. For the same compound, in data set [2], the aggregation ratio is on record as 6.2%. Besides, the “Releasing ratio of fluorescent molecule for 6 hours” value (“Releasing ratio … for 6 hours” below) at cathepsin B is listed as 53%. Moreover, in data set [3], the “Releasing ratio of payload on Day 4” value is recorded as 38%.

In data set [1], `CNC(=O)CCSC1CC(=O)N(CCCCCC(=O)N[C@@H](CCC(=O)O)C(=O)N[C@H](C(=O)N[C@@H](CCCNC(N)=O)C(=O)Nc2ccc(COC(=O)N(C)CC(=O)NCc3cc4ccc5cccc6ccc(c3)c4c56)cc2)C(C)C)C1=O` (stereo partly drawn) [ADC mimic 1] had a Retention time of 12.8 min. Besides, the aggregation ratio in data set [2] is 3.0%. For the same compound, at cathepsin B, the “Releasing ratio … for 6 hours” value is recorded as 88%. The “Releasing ratio of payload on Day 4” value in data set [3] is 8%.

As to `CNC(=O)CCSC1CC(=O)N(CCCCCC(=O)N(CC(=O)O)CC(=O)N[C@H](C(=O)N[C@@H](CCCNC(N)=O)C(=O)Nc2ccc(COC(=O)N(C)CC(=O)NCc3cc4ccc5cccc6ccc(c3)c4c56)cc2)C(C)C)C1=O` (stereo partly drawn) [ADC mimic 3], the Retention time in data set [1] is reported as 12.7 min. In data set [2], the aggregation ratio was 2.9%. Moreover, the “Releasing ratio … for 6 hours” value on cathepsin B was found to be 100%. For the same compound, the “Releasing ratio of payload on Day 4” value in data set [3] stood at 9%.
